This note sets out measurements from article doi:10.1101/2022.12.15.520641.

The test addresses 6His-σS (His-tagged RpoS) (E. coli) (UniProt P13445). The test is described as follows: pull-down.
Chain of UniProt P13445 (P13445 whole entry): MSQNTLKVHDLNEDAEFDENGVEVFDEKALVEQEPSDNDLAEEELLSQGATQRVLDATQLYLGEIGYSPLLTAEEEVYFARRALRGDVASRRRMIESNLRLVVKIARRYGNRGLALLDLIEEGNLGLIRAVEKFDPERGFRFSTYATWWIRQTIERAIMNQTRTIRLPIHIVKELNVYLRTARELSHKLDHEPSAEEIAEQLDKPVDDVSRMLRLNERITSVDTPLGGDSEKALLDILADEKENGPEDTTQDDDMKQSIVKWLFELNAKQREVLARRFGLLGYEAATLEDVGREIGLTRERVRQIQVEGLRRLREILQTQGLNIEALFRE

As to “RssB bound to Mg2+•beryllofluoride (phosphorylated-like RssB) (from UniProt P0AEV1 1-337) (natural protein)”, the fold increase in pull-down efficiency over RssB without Mg2+•beryllofluoride is 5 fold.
